Reference: patent US20140134132A1

Target: organic anion transporting polypeptide 1B1 (UniProt Q9Y6L6)
Test: cell-based or functional assay

Chain of organic anion transporting polypeptide 1B1 (Q9Y6L6 whole entry): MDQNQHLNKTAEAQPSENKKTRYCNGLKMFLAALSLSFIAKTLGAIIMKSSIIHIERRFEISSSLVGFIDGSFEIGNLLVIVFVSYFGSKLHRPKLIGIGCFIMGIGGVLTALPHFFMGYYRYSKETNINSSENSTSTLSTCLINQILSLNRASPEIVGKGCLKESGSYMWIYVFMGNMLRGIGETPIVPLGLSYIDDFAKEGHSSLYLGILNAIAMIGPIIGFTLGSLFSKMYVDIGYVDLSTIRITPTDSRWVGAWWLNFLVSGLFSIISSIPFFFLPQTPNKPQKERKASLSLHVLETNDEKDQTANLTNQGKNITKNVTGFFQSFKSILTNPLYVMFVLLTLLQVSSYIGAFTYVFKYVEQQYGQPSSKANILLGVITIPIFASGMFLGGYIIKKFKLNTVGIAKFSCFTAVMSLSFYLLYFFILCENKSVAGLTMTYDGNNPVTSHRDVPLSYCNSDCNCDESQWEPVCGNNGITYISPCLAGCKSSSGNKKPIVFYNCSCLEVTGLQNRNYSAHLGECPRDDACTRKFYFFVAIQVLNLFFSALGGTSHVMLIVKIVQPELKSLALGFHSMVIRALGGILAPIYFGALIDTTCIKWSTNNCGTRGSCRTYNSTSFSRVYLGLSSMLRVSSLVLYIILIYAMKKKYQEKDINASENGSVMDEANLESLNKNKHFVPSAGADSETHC

| Substance | OATP1B13 IC50 |
| --- | --- |
| 3-[(R)-2-(methylamino)butanoic acid]-4-[(2S,3S)-4-methoxy-3-methyl-2-(methylamino)butanoyl]-cyclosporin (peptide) | 2100 nM |
| 3-[(R)-5-hydroxy-2-(methylamino)pentanoyl]-4-[(2S,3S)-3-methyl-2-(methylamino)-4-(methylsulfonyl)butanoyl]-cyclosporin (peptide) | 2700 nM |
| 3-[D-Ala]-4-[(2S,3R)-3,6-dimethyl-2-(methylamino)-6-((4-methylpiperazine-1-carbonyl)oxy)heptanoyl]-cyclosporin (peptide) | 4700 nM |
| 3-[D-Ala]-4-[(2S,3R)-3-methoxy-2-(methylamino)-4-morpholinobutanoyl]-cyclosporin (peptide) | 900 nM |
| 3-[D-Ala]-4-[(2S,3R)-3-methyl-2-(methylamino)-4-(1,4-dioxa-8-azaspiro[4.5]decan-8-yl)butanoyl]-cyclosporin (peptide) | 2100 nM |
| 3-[D-Ala]-4-[(2S,3R)-3-methyl-2-(methylamino)-4-(2-oxa-6-azaspiro[3.3]heptan-6-yl)butanoyl]-cyclosporin (peptide) | 3400 nM |
| 3-[D-Ala]-4-[(2S,3R)-3-methyl-2-(methylamino)-5-((S)-2-methylpiperidin-1-yl)pentanoyl]-cyclosporin (peptide) | 1700 nM |
| 3-[D-Ala]-4-[(2S,3R)-3-methyl-2-(methylamino)-5-((S)-3-oxotetrahydro-1H-oxazolo[3,4-a]pyrazin-7(3H)-yl)pentanoyl]-cyclosporin (peptide) | 2800 nM |
| 3-[D-Ala]-4-[(2S,3R)-3-methyl-2-(methylamino)-5-(piperidin-1-yl)pentanoyl]-cyclosporin (peptide) | 2300 nM |
| 3-[D-Ala]-4-[(2S,3R)-3-methyl-2-(methylamino)-5-morpholinopentanoyl]-cyclosporin (peptide) | 3900 nM |
| 3-[D-Ala]-4-[(2S,3R)-3-methyl-2-(methylamino)-6-(4-methylpiperazin-1-yl)-6-oxohexanoyl]-cyclosporin (peptide) | 5400 nM |
| 3-[D-Ala]-4-[(2S,3R)-3-methyl-4-(methyl(pyridin-3-ylmethyl)amino)-2-(methylamino)butanoyl]-cyclosporin (peptide) | 1000 nM |
| 3-[D-Ala]-4-[(2S,3R)-3-methyl-6-((methyl(1-methylpiperidin-4-yl)carbamoyl)oxy)-2-(methylamino)hexanoyl]-cyclosporin (peptide) | 3700 nM |
| 3-[D-Ala]-4-[(2S,3R)-4-(3-methoxyazetidin-1-yl)-3-methyl-2-(methylamino)butanoyl]-cyclosporin (peptide) | 4200 nM |
| 3-[D-Ala]-4-[(2S,3R)-4-(4-(ethoxycarbonyl)piperazin-1-yl)-3-methyl-2-(methylamino)butanoyl]-cyclosporin (peptide) | 2100 nM |
| 3-[D-Ala]-4-[(2S,3R)-4-(4-acetylpiperazin-1-yl)-3-methyl-2-(methylamino)butanoyl]-cyclosporin (peptide) | 2300 nM |
| 3-[D-Ala]-4-[(2S,3R)-4-(4-cyanopiperidin-1-yl)-3-methyl-2-(methylamino)butanoyl]-cyclosporin (peptide) | 1900 nM |
| 3-[D-Ala]-4-[(2S,3R)-4-((2S,5S)-2,5-dimethylmorpholino)-3-methyl-2-(methylamino)butanoyl]-cyclosporin (peptide) | 2600 nM |
| 3-[D-Ala]-4-[(2S,3R)-4-((4-ethylpiperazine-1-carbonyl)oxy)-3-methyl-2-(methylamino)butanoyl]-cyclosporin (peptide) | 2200 nM |
| 3-[D-Ala]-4-[(2S,3R)-4-cyano-3-methyl-2-(methylamino)butanoyl]-cyclosporin (peptide) | 900 nM |
| 3-[D-Ala]-4-[(2S,3R)-5-(4-cyanopiperidin-1-yl)-3-methyl-2-(methylamino)pentanoyl]-cyclosporin (peptide) | 2400 nM |

Results, then the substance that gave them:

| OATP1B13 IC50 | Substance |
| --- | --- |
| 3300 nM | 1-dihydro-3-[D-Ala]-4[(2S,3S)-2-Amino-4-[4-(2-methoxy-ethyl)-piperazin-1-yl]-3-methyl-butanoyl]-cyclosporin (peptide) |
| 2000 nM | 3-[(R)-3-methyl-2-(methylamino)butanoyl]-4-[(2S,3S)-4-methoxy-3-methyl-2-(methylamino)butanoyl]-cyclosporin (peptide) |
| 1700 nM | 3-[D-Ala]-4-[(2S,3R)-3-methyl-2-(methylamino)-4-(1,4-oxazepan-4-yl)butanoyl]-cyclosporin (peptide) |
| 2000 nM | 3-[D-Ala]-4-[(2S,3R)-3-methyl-2-(methylamino)-4-(2-oxa-6-azaspiro[3.4]octan-6-yl)butanoyl]-cyclosporin (peptide) |
| 1000 nM | 3-[D-Ala]-4-[(2S,3R)-3-methyl-2-(methylamino)-4-(3-(trifluoromethyl)-5,6-dihydro-[1,2,4]triazolo[4,3-a]pyrazin-7(8H)-yl)butanoyl]-cyclosporin (peptide) |
| 2100 nM | 3-[D-Ala]-4-[(2S,3R)-3-methyl-2-(methylamino)-4-(3-oxopiperazin-1-yl)butanoyl]-cyclosporin (peptide) |
| 1800 nM | 3-[D-Ala]-4-[(2S,3R)-3-methyl-2-(methylamino)-4-(4-(methylsulfonyl)piperidin-1-yl)butanoyl]-cyclosporin (peptide) |
| 7900 nM | 3-[D-Ala]-4-[(2S,3R)-3-methyl-2-(methylamino)-4-(4-methylpiperazin-1-yl)butanoyl]-cyclosporin (peptide) |
| 2900 nM | 3-[D-Ala]-4-[(2S,3R)-3-methyl-2-(methylamino)-6-((4-methylpiperazine-1-carbonyl)oxy)hexanoyl]-cyclosporin (peptide) |
| 7800 nM | 3-[D-Ala]-4-[(2S,3R)-3-methyl-2-(methylamino)-6-(((1-methylpiperidin-4-yl)carbamoyl)oxy)hexanoyl]-cyclosporin (peptide) |
| 4800 nM | 3-[D-Ala]-4-[(2S,3R)-3-methyl-2-(methylamino)-6-morpholino-6-oxohexanoyl]-cyclosporin (peptide) |
| 1400 nM | 3-[D-Ala]-4-[(2S,3R)-4-(3,3-difluoropyrrolidin-1-yl)-3-methyl-2-(methylamino)butanoyl]-cyclosporin (peptide) |
| 1700 nM | 3-[D-Ala]-4-[(2S,3R)-4-(8-oxa-3-azabicyclo[3.2.1]octan-3-yl)-3-methyl-2-(methylamino)butanoyl]-cyclosporin (peptide) |
| 2700 nM | 3-[D-Ala]-4-[(2S,3R)-4-((2-(dimethylamino)-2-oxoethyl)(methyl)amino)-3-methyl-2-(methylamino)butanoyl]-cyclosporin (peptide) |
| 1900 nM | 3-[D-Ala]-4-[(2S,3R)-4-((2-methoxyethyl)(methyl)amino)-3-methyl-2-(methylamino)butanoyl]-cyclosporin (peptide) |
| 1400 nM | 3-[D-Ala]-4-[(2S,3R)-5-(3-methoxyazetidin-1-yl)-3-methyl-2-(methylamino)pentanoyl]-cyclosporin (peptide) |
| 9100 nM | 3-[D-Ala]-4-[(2S,3R)-5-(4-(2-methoxyethyl)piperazin-1-yl)-3-methyl-2-(methylamino)pentanoyl]-cyclosporin (peptide) |
